The nature of the series: protein stability index of a GFP-peptide fusion (GPS, HEK-293T) (PSI 1-6); higher = more stable. Conditions: c terminus: a fixed tail appended.

± gives the standard deviation.
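Note: 24-mer peptide tiles fused after GFP, lentivirally expressed, FACS-sorted into six equal bins by GFP/DsRed ratio, decoded by Illumina sequencing, PSI is the read-weighted mean bin number.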

IGTMAGITTPIIDTFKVPKEMFTV [SLC6A17]: the protein stability index was found to be 2.45 ± 0.3 (treatment: DMSO) and 2.71 ± 0.24 (treatment: MLN4924 1 uM, 8 h).

For IHFDSYITCVSGAIVDLISRQYDK [FBXO33], the protein stability index reads like this: (treatment: DMSO) 2.7 ± 0.47; (treatment: MLN4924 1 uM, 8 h) 2.81 ± 0.53.

With IIEELGEQRDQLERTKSRLVNTSE [VTI1B], the protein stability index reads like this: (treatment: DMSO) 4.57 ± 0.41; (treatment: MLN4924 1 uM, 8 h) 4.63 ± 0.15.

Turning to IKMILKMVQLDSIEDLEVTCTWKL [PRAME], the protein stability index was 2.89 ± 0.29 (treatment: DMSO) and 2.99 ± 0.42 (treatment: MLN4924 1 uM, 8 h).

As to ILNLERDVEDLQRDKARLLREKVE [NFE2L1], the protein stability index (treatment: DMSO) was 3.96 ± 0.51 and the protein stability index (treatment: MLN4924 1 uM, 8 h) was determined as 3.93 ± 0.41.

Take ILSKMPKPKPPPNSEGEQGPNGSQ [CCNC]: the protein stability index runs as follows: (treatment: DMSO) 5.07 ± 0.23; (treatment: MLN4924 1 uM, 8 h) 5.1 ± 0.12.

Turning to IMGNLLIIVTIMASQSLGSPMYFF [OR4A15], the protein stability index is, setting by setting: (treatment: DMSO) 3.35 ± 0.29; (treatment: MLN4924 1 uM, 8 h) 3.52 ± 0.3.

As to IPAVGSSLSEALDLIESDPDAWCD [MYBL2], the protein stability index reads like this: (treatment: DMSO) 4.47 ± 0.58; (treatment: MLN4924 1 uM, 8 h) 4.58 ± 0.23.

As to IRLQAELEEGENPVPAFQSDGTDE [SMG5], the protein stability index reads like this: (treatment: DMSO) 5.27 ± 0.14; (treatment: MLN4924 1 uM, 8 h) 5.12 ± 0.23.

For the sequence IRSPRPASVATWAIFVHRVGQPSI [CTBP1-DT], the protein stability index stood at 2.46 ± 0.5 (treatment: DMSO) and 2.47 ± 0.31 (treatment: MLN4924 1 uM, 8 h).

On to ISCPTCRRETVLFTDYGLAALAVN [RNF208], for which the protein stability index was 2.15 ± 0.13 (treatment: DMSO) and 2.22 ± 0.28 (treatment: MLN4924 1 uM, 8 h).

As for ISPKARCLIRSLLRREPSERLTAP [TRIB1], the protein stability index worked out at 2.22 ± 0.24 (treatment: DMSO) and 2.33 ± 0.39 (treatment: MLN4924 1 uM, 8 h).

Take ISQYEDDLPPPPADPVLDLPLPPP [APBB1IP]: the protein stability index is, setting by setting: (treatment: DMSO) 4.93 ± 0.18; (treatment: MLN4924 1 uM, 8 h) 4.913 ± 0.048.

Regarding ITFPSLESCEEKNQLILTASADRT [WDR41], the protein stability index is 4.02 ± 0.29 (treatment: DMSO) and 4.1 ± 0.35 (treatment: MLN4924 1 uM, 8 h).

On to ITIGYRVYHSYDLPWFRTLSWYFL [CDS1], for which the protein stability index by setting is: (treatment: DMSO) 2.92 ± 0.42; (treatment: MLN4924 1 uM, 8 h) 3.1 ± 0.6.

ITLFLLGAAKGKEVCYEDLGCFSD [PNLIPRP1]: the protein stability index runs as follows: (treatment: DMSO) 2.74 ± 0.43; (treatment: MLN4924 1 uM, 8 h) 3.24 ± 0.43.

Turning to IVADIELENVLDPDSFYELKSQPL [TFE3], the protein stability index (treatment: DMSO) came to 2.65 ± 0.47 and the protein stability index (treatment: MLN4924 1 uM, 8 h) turned out to be 3.09 ± 0.51.

IVADILLYVVIPTRRSTAEAFQIV [SPNS1]: the protein stability index runs as follows: (treatment: DMSO) 2.97 ± 0.34; (treatment: MLN4924 1 uM, 8 h) 3.1 ± 0.18.

In the case of IVAIIPYFITLGTEIAEQEGNQKG [KCNA1], the protein stability index runs as follows: (treatment: DMSO) 2.87 ± 0.71; (treatment: MLN4924 1 uM, 8 h) 2.55 ± 0.48.

Take IVTVHYGCASFIYLRPQSNYSSSQ [OR10K2]: the protein stability index is 2.92 ± 0.39 (treatment: DMSO) and 2.95 ± 0.56 (treatment: MLN4924 1 uM, 8 h).

As for IYNSHLVVHQRVHSGEKPYKCSDC [ZNF232], the protein stability index worked out at 2.9 ± 0.23 (treatment: DMSO) and 3.02 ± 0.28 (treatment: MLN4924 1 uM, 8 h).

In the case of IYNSNIFTDPFFIVETLCIIWFSF [KCNA1], the protein stability index was 3.23 ± 0.2 (treatment: DMSO) and 3.17 ± 0.29 (treatment: MLN4924 1 uM, 8 h).

For the sequence KAAEGGLSSPEFSELCIWLGSQIK [FAM98B], the protein stability index (treatment: DMSO) worked out at 2.08 ± 0.12 and the protein stability index (treatment: MLN4924 1 uM, 8 h) was 2.03 ± 0.4.

On to KADENNGFGSKNTAFCTHVFPETA [TBX5], for which the protein stability index is, setting by setting: (treatment: DMSO) 4.01 ± 0.47; (treatment: MLN4924 1 uM, 8 h) 3.86 ± 0.2.

In the case of KCDQPFFWNFKQMWDSKKIGLRQH [WDFY2], the protein stability index runs as follows: (treatment: DMSO) 2.29 ± 0.36; (treatment: MLN4924 1 uM, 8 h) 2.65 ± 0.42.

Take KDPYGKPVDLWACGVILYILLVGY [CAMK2A]: the protein stability index (treatment: DMSO) came to 3.16 ± 0.97 and the protein stability index (treatment: MLN4924 1 uM, 8 h) is 3.07 ± 0.32.

For KEDKIMLDDRKNEEDGGADEHEHP [MIA2], the protein stability index runs as follows: (treatment: DMSO) 5.52 ± 0.063; (treatment: MLN4924 1 uM, 8 h) 5.55 ± 0.19.

With KENIEKDEDDVDQELANIDPTWIE [SRPK2], the protein stability index runs as follows: (treatment: DMSO) 5.56 ± 0.28; (treatment: MLN4924 1 uM, 8 h) 5.53 ± 0.2.

With KFSIPDLDRHQLPLDDALLSFAHA [DPCD], the protein stability index runs as follows: (treatment: DMSO) 2.84 ± 0.21; (treatment: MLN4924 1 uM, 8 h) 2.94 ± 0.35.

Source of the values: the supplement of paper PMC10567573.
